# How the values were obtained:
# MUC1 (human) [1] = biological target: MUC1 (human) (UniProt P15941); test: surface staining, flow cytometry, KU812 CTL-siRNA cells; 2 µg antibody/sample
# MUC1 (human) [2] = biological target: MUC1 (human) (UniProt P15941); test: surface staining, flow cytometry, KU812 MUC1-siRNA cells (MUC1 silenced, second block); 2 µg antibody/sample
# MUC1 (human) [3] = biological target: MUC1 (human) (UniProt P15941); test: flow cytometry, KU812/MUC1siRNA cells (MUC1 silenced, labelled MUC1-negative)
# MUC1 (human) [4] = biological target: MUC1 (human) (UniProt P15941); test: surface staining, flow cytometry, K562 CTL-siRNA cells; 2 µg antibody/sample; fixed samples kept at 4° C. for 4 days
# MUC1 (human) [5] = biological target: MUC1 (human) (UniProt P15941); test: surface staining, flow cytometry, U266 CTL-siRNA cells; 2 µg antibody/sample
# MUC1 (human) [6] = biological target: MUC1 (human) (UniProt P15941); test: surface staining, flow cytometry, ZR-75-1 cells; 2 µg antibody/sample
# MUC1 (human) [7] = biological target: MUC1 (human) (UniProt P15941); test: surface staining, flow cytometry, ZR-75-1 cells (second row); 2 µg antibody/sample
# MUC1 (human) [8] = biological target: MUC1 (human) (UniProt P15941); test: surface staining, flow cytometry, KMS28PE cells; 2 µg antibody/sample
# MUC1 (human) [9] = biological target: MUC1 (human) (UniProt P15941); test: surface staining, flow cytometry, primary breast cancer patient cells RG563999 (second row); 2 µg antibody/sample
# MUC1 (human) [10] = biological target: MUC1 (human) (UniProt P15941); test: flow cytometry, K562/MUC1siRNA cells (MUC1 silenced, labelled MUC1-negative)
# MUC1 (human) [11] = biological target: MUC1 (human) (UniProt P15941); test: surface staining, flow cytometry, KU812 CML cells; 2 µg antibody/sample
# MUC1 (human) [12] = biological target: MUC1 (human) (UniProt P15941); test: flow cytometry, K562/Con siRNA cells (MUC1-positive)
# MUC1 (human) [13] = biological target: MUC1 (human) (UniProt P15941); test: surface staining, flow cytometry, U266 cells; 2 µg antibody/sample
# MUC1 (human) [14] = biological target: MUC1 (human) (UniProt P15941); test: surface staining, flow cytometry, U266 MUC1-siRNA cells (MUC1 silenced, second block); 2 µg antibody/sample
# MUC1 (human) [15] = biological target: MUC1 (human) (UniProt P15941); test: surface staining, flow cytometry, KU812 CTL-siRNA cells (second block); 2 µg antibody/sample
# MUC1 (human) [16] = biological target: MUC1 (human) (UniProt P15941); test: surface staining, flow cytometry, K562 CML cells; 2 µg antibody/sample
# MUC1 (human) [17] = biological target: MUC1 (human) (UniProt P15941); test: surface staining, flow cytometry, primary breast cancer patient cells JB564765; 2 µg antibody/sample
# MUC1 (human) [18] = biological target: MUC1 (human) (UniProt P15941); test: flow cytometry, U266/Con siRNA cells (MUC1-positive)
# MUC1 (human) [19] = biological target: MUC1 (human) (UniProt P15941); test: surface staining, flow cytometry, KU812 cells; 2 µg antibody/sample
# MUC1 (human) [20] = biological target: MUC1 (human) (UniProt P15941); test: flow cytometry, KU812/Con siRNA cells (MUC1-Positive)
# MUC1 (human) [21] = biological target: MUC1 (human) (UniProt P15941); test: surface staining, flow cytometry, K562 MUC1-siRNA cells (MUC1 silenced); 2 µg antibody/sample
# MUC1 (human) [22] = biological target: MUC1 (human) (UniProt P15941); test: surface staining, flow cytometry, K562 cells; 2 µg antibody/sample
# MUC1 (human) [23] = biological target: MUC1 (human) (UniProt P15941); test: surface staining, flow cytometry, ME559203 cells; 2 µg antibody/sample
# MUC1 (human) [24] = biological target: MUC1 (human) (UniProt P15941); test: surface staining, flow cytometry, MV4-11 cells; 2 µg antibody/sample
# MUC1 (human) [25] = biological target: MUC1 (human) (UniProt P15941); test: surface staining, flow cytometry, U266 CTL-siRNA cells (second block); 2 µg antibody/sample
# MUC1 (human) [26] = biological target: MUC1 (human) (UniProt P15941); test: surface staining, flow cytometry, KU812 MUC1-siRNA cells (MUC1 silenced); 2 µg antibody/sample
# MUC1 (human) [27] = biological target: MUC1 (human) (UniProt P15941); test: surface staining, flow cytometry, RPMI8266 cells; 2 µg antibody/sample
# MUC1 (human) [28] = biological target: MUC1 (human) (UniProt P15941); test: surface staining, flow cytometry, ZR-75-1 cells (third row); 2 µg antibody/sample
# MUC1 (human) [29] = biological target: MUC1 (human) (UniProt P15941); test: surface staining, flow cytometry, MOLM-14 cells; 2 µg antibody/sample, PE-conjugated goat anti-mouse 2nd antibody
# MUC1 (human) [30] = biological target: MUC1 (human) (UniProt P15941); test: surface staining, flow cytometry, primary breast cancer patient cells RG563999; 2 µg antibody/sample
# MUC1 (human) [31] = biological target: MUC1 (human) (UniProt P15941); test: flow cytometry, U266/MUC1siRNA cells (MUC1 silenced, labelled MUC1-negative)
# MUC1 (human) [32] = biological target: MUC1 (human) (UniProt P15941); test: surface staining, flow cytometry, U266 MUC1-siRNA cells (MUC1 silenced); 2 µg antibody/sample
# Sequence of MUC1 (human) (P15941 24-1255): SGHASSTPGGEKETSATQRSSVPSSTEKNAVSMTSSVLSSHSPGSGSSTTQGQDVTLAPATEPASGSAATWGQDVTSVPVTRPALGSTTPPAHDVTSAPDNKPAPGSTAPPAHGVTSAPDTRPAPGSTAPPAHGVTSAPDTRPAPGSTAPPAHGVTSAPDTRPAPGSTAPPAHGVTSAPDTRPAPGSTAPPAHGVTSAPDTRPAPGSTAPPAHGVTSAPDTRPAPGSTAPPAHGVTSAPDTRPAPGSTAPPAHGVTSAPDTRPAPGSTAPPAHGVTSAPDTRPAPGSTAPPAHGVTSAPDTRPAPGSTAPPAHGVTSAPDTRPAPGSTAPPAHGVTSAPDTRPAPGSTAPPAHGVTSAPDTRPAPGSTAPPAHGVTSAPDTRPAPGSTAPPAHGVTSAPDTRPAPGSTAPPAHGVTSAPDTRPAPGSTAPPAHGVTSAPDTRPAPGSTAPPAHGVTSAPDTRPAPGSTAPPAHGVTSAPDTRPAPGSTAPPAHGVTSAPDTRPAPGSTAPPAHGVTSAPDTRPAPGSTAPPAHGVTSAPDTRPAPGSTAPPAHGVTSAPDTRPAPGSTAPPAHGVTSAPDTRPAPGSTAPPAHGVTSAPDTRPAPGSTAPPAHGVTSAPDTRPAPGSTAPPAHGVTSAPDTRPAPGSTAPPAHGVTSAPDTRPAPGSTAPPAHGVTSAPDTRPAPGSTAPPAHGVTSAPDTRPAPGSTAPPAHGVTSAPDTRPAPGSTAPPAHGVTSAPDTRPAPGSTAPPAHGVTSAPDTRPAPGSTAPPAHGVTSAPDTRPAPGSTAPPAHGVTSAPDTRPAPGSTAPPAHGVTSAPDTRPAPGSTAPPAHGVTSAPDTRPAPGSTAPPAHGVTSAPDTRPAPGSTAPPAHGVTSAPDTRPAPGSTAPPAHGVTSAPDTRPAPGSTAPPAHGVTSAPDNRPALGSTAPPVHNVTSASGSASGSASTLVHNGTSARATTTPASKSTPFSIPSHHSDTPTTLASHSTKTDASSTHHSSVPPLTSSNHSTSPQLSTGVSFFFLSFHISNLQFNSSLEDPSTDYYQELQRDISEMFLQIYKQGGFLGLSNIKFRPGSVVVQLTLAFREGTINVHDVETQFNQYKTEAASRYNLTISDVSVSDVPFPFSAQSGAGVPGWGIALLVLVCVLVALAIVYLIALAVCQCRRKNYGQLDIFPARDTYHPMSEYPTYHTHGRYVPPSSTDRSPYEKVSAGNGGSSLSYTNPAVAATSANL
substance,measurement,setting,value
DF3 (antibody),flow cytometry value (unit not given),MUC1 (human) [1],96.6
same,flow cytometry value (unit not given),MUC1 (human) [2],85.4
same,flow cytometry value (unit not given),MUC1 (human) [3],35.4
same,flow cytometry value (unit not given),MUC1 (human) [4],40.6
same,flow cytometry value (unit not given),MUC1 (human) [5],94.7
same,flow cytometry value (unit not given),MUC1 (human) [6],98.5
same,flow cytometry value (unit not given),MUC1 (human) [7],6.84
same,flow cytometry value (unit not given),MUC1 (human) [8],58.2
same,flow cytometry value (unit not given),MUC1 (human) [9],11.9
same,flow cytometry value (unit not given),MUC1 (human) [10],17.1
same,flow cytometry value (unit not given),MUC1 (human) [11],90.5
same,flow cytometry value (unit not given),MUC1 (human) [12],40.6
same,flow cytometry value (unit not given),MUC1 (human) [13],99.2
same,flow cytometry value (unit not given),MUC1 (human) [14],13.5
same,flow cytometry value (unit not given),MUC1 (human) [15],95.2
same,flow cytometry value (unit not given),MUC1 (human) [16],77.9
same,flow cytometry value (unit not given),MUC1 (human) [17],21.1
same,flow cytometry value (unit not given),MUC1 (human) [18],94.7
same,flow cytometry value (unit not given),MUC1 (human) [19],98.1
same,flow cytometry value (unit not given),MUC1 (human) [20],95.2
same,flow cytometry value (unit not given),MUC1 (human) [21],17.1
same,flow cytometry value (unit not given),MUC1 (human) [22],78.8
same,flow cytometry value (unit not given),MUC1 (human) [23],57
same,flow cytometry value (unit not given),MUC1 (human) [24],74.2
same,flow cytometry value (unit not given),MUC1 (human) [25],96.5
same,flow cytometry value (unit not given),MUC1 (human) [26],69.2
same,flow cytometry value (unit not given),MUC1 (human) [27],95
same,flow cytometry value (unit not given),MUC1 (human) [28],89.5
same,flow cytometry value (unit not given),MUC1 (human) [29],99.5
same,flow cytometry value (unit not given),MUC1 (human) [30],60.5
same,flow cytometry value (unit not given),MUC1 (human) [31],13.5
same,flow cytometry value (unit not given),MUC1 (human) [32],16.2
